This experiment deals with human CD73 expressed on cells (cancer cell line NCI-H1373 endogenously expressing human CD73; human T cell expressing human CD73) (human) (UniProt P21589). The experiment is described as follows: cell-based or functional assay.
Chain of human CD73 expressed on cells (cancer cell line NCI-H1373 endogenously expressing human CD73; human T cell expressing human CD73) (human) (P21589 27-549): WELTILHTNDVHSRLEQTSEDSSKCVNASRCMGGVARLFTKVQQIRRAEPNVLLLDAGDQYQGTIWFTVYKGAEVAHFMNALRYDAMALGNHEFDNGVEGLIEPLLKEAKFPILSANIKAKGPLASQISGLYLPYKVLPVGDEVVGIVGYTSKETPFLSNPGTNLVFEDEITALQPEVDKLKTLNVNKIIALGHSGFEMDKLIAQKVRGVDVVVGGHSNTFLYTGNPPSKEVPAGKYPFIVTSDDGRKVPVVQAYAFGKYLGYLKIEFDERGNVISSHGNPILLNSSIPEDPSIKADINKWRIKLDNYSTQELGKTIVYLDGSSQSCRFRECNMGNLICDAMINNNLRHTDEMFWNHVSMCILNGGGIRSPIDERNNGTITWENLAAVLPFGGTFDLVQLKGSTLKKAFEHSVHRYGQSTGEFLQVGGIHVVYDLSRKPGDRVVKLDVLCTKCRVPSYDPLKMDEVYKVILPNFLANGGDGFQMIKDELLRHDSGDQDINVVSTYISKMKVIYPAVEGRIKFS

B1: 6E1 (antibody, from another filing, V domains shown)
VH: EFQLQQSGPELVKPGASVKVSCKASGYAFTSYNMYWVKQSHGKRLEWIGYIDPYNGGSSYNQKFKGKATLTVDKSSSTAYMHLNNLTSEDSAVYYCARGYNNYKAWFAYWGQGTLVTVSA
VL: SIVMTQTPKFLLVSAGDRVTITCKASQSVTNDVAWYQQKPGQSPKLLIYYASNRYTGVPDRFTGSGYGTDFTFTISTMQAEDLAVYFCQQDYSSLTFGAGTKLELK
In turn, B1 had an EC50 (ng/mL), IFNγ; recovery of AMP-dependently suppressed human T cell functions of 132 ng/mL and an EC50 (ng/mL), Proliferation of T cells; recovery of AMP-dependently suppressed human T cell functions of 357 ng/mL.

These data come from patent US20200071404A1.
